Experimental data taken from PMC8336959.

Biological target: Atto488-labeled GRB2-SH2 domain (UniProt P62993)
Test: MST

Sequence of Atto488-labeled GRB2-SH2 domain (P62993 60-152): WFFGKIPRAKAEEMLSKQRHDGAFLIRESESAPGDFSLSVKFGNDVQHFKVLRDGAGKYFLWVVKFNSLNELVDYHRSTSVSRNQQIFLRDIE

- Kd: 2.8 µM
Substance: Dual-phosphorylated H2AX (pH2AX) peptide
